Laboratory results taken from article PMC11319775.
Where two headings read alike, the source gives them in different places.

T1: TaHRP1:GST (UniProt A0A3B6H0D8 1-141)
T1 sequence: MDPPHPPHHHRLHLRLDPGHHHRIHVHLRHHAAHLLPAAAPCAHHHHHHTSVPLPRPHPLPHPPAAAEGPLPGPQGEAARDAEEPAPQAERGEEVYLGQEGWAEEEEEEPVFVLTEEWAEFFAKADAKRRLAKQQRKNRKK

B1: mProbe-DNA (HBS mutated) (dsDNA)
DNA 1: AAAACCAAAATAACTAGTTAGGCGGCGGTGAAAGAGTTAAATTCCATTTATTTTT
DNA 2: AAAAATAAATGGAATTTAACTCTTTCACCGCCGCCTAACTAGTTATTTTGGTTTT
B2: Probe-DNA (HBS promoter probe) (dsDNA)
DNA 1: AAAACCAAAATAACTAGTTAAAGAAGAATGAAAGAGTTAAATTCCATTTATTTTT
DNA 2: AAAAATAAATGGAATTTAACTCTTTCATTCTTCTTTAACTAGTTATTTTGGTTTT

What was measured:
TaHRP1:GST [1] = biological target: T1, TaHRP1:GST; assay: EMSA
TaHRP1:GST [2] = biological target: T1, TaHRP1:GST; assay: EMSA; remark: listed apart in the source

Binder | binding result (TaHRP1:GST [1]) | binding result (TaHRP1:GST [2])
B1 | no binding | –
B2 | – | binds
